Measured values published in the supplement of paper PMC10567573.

B1: RBBP5 (parent)
chain: TGTSNTTAIKSIEFARKGSCFLIN
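Also: lentivirally expressed fusions sorted by FACS into six bins by GFP to DsRed ratio, PSI derived from sequencing read proportions per bin multiplied by bin number.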

Variants of: B1
Test: protein stability index of a GFP-peptide fusion (GPS, HEK-293T) (PSI 1-6); higher = more stable
Details: c terminus: a fixed tail appended
For AGTSNTTAIKSIEFARKGSCFLIN, the protein stability index was 2.15.
With PGTSNTTAIKSIEFARKGSCFLIN the protein stability index was 2.47.
With TGTSNTTAIKSIERARKGSCFLIN the protein stability index was 3.05.
For TGTSNTTAIKSIEKARKGSCFLIN, the protein stability index was 3.17.
Work on TGTSNTTAIKSIETARKGSCFLIN yielded a protein stability index of 2.97.
TGTSNTTAIKSIEPARKGSCFLIN showed a protein stability index of 3.05.
Variant TGTSNTTAIKSIEDARKGSCFLIN has a protein stability index of 3.15.
Variant TGTSNTTAIKSIEWARKGSCFLIN has a protein stability index of 2.07.
Work on TGTSNTTAIKSIESARKGSCFLIN yielded a protein stability index of 3.42.
TGTSNTTAIKSYEFARKGSCFLIN showed a protein stability index of 2.12.
With TGTSNTTAIKSNEFARKGSCFLIN the protein stability index was 2.67.
Work on TGTSNTTAIKSDEFARKGSCFLIN yielded a protein stability index of 2.79.
Variant TGTSNTTAIKSGEFARKGSCFLIN has a protein stability index of 2.4.
For TGTSNTTAIKSPEFARKGSCFLIN, the protein stability index was 3.
For TGTSNTTAIKSTEFARKGSCFLIN, the protein stability index was 2.61.
Variant TGTSNTTAIKSREFARKGSCFLIN has a protein stability index of 2.57.
With TGTSNTTAIKSMEFARKGSCFLIN the protein stability index was 2.61.
TGTSNTTAIKCIEFARKGSCFLIN showed a protein stability index of 1.74.
TGTSNTTAIKFIEFARKGSCFLIN gave a protein stability index of 2.45.
Work on TGTSNTTAIKTIEFARKGSCFLIN yielded a protein stability index of 2.1.
For TGTSNTTAIKKIEFARKGSCFLIN, the protein stability index was 2.13.
For TGTSNTTAIKRIEFARKGSCFLIN, the protein stability index was 2.12.
TGTSNTTAIKYIEFARKGSCFLIN showed a protein stability index of 1.32.
TGTSNTTAIKMIEFARKGSCFLIN showed a protein stability index of 2.09.
For TGTSNTTAIKPIEFARKGSCFLIN, the protein stability index was 2.61.
TGTSNTTAIKQIEFARKGSCFLIN gave a protein stability index of 2.74.
Work on TGTSNTTAIKVIEFARKGSCFLIN yielded a protein stability index of 2.48.
TGTSNTTAIKEIEFARKGSCFLIN gave a protein stability index of 2.23.
Variant TGTSNTTAIKLIEFARKGSCFLIN has a protein stability index of 2.5.
TGTSNTTAIKAIEFARKGSCFLIN gave a protein stability index of 2.18.
TGTSNTFAIKSIEFARKGSCFLIN showed a protein stability index of 1.93.
With TGTSNTKAIKSIEFARKGSCFLIN the protein stability index was 2.04.
For TGTSNTIAIKSIEFARKGSCFLIN, the protein stability index was 2.23.
Work on TGTSNTQAIKSIEFARKGSCFLIN yielded a protein stability index of 2.66.
In the case of TGTSNTMAIKSIEFARKGSCFLIN, the protein stability index is reported as 1.95.
In the case of TGTSNTRAIKSIEFARKGSCFLIN, the protein stability index is reported as 2.15.
TGTSNTHAIKSIEFARKGSCFLIN gave a protein stability index of 1.97.
In the case of TGTSNTAAIKSIEFARKGSCFLIN, the protein stability index is reported as 2.85.
Work on TGTSNTTAEKSIEFARKGSCFLIN yielded a protein stability index of 2.91.
With TGTSNTTAYKSIEFARKGSCFLIN the protein stability index was 1.88.
In the case of TGTSNTTACKSIEFARKGSCFLIN, the protein stability index is reported as 2.28.
With TGTSNTTAKKSIEFARKGSCFLIN the protein stability index was 2.47.
Work on TGTSNTTANKSIEFARKGSCFLIN yielded a protein stability index of 2.44.
In the case of TGTSNTTAHKSIEFARKGSCFLIN, the protein stability index is reported as 2.35.
TGTSNTTAGKSIEFARKGSCFLIN showed a protein stability index of 2.37.
Work on TGTSNTTAFKSIEFARKGSCFLIN yielded a protein stability index of 1.98.
With TGTSNTTAIKSIEFARKGSCFHIN the protein stability index was 2.52.
Work on TGTSNTTAIKSIEFARKGSCFMIN yielded a protein stability index of 2.64.
In the case of TGTSNTTAIKSIEFARKGSCFDIN, the protein stability index is reported as 3.15.
TGTSNTTAIKSIEFARKGSCFVIN showed a protein stability index of 2.28.
In the case of TGTSNTTAIKSIEFIRKGSCFLIN, the protein stability index is reported as 1.63.
For TGTSNTTAIKSIEFTRKGSCFLIN, the protein stability index was 1.79.
Variant TGTSNTTAIKSIEFDRKGSCFLIN has a protein stability index of 2.9.
Work on TGTSNTTAIKSIEFQRKGSCFLIN yielded a protein stability index of 2.51.
TGTSNTTAIKSIEFERKGSCFLIN showed a protein stability index of 2.44.
For TGTSNTTAIKSIEFKRKGSCFLIN, the protein stability index was 2.42.
Variant TGTSNTTAIKSIEFARKGSCFLRN has a protein stability index of 3.03.
TGTSNTTAIKSIEFARKGSCFLSN gave a protein stability index of 3.1.
Work on TGTSNTTAIKSIEFARKGSCFLNN yielded a protein stability index of 2.99.
In the case of TGTSNTTAIKSIEFARKGSCFLMN, the protein stability index is reported as 2.49.
TGTSNTTAIKSIEFARKGSCFLDN gave a protein stability index of 3.02.
Variant TGTSNTTAIKSIEFARKGSCFLYN has a protein stability index of 2.58.
With TGTSNTTAIKSIEFARKGSCFLVN the protein stability index was 2.62.
In the case of TGTSNTTAIKSIEFARKGSCFLGN, the protein stability index is reported as 2.73.
With TGTSDTTAIKSIEFARKGSCFLIN the protein stability index was 2.35.
Work on TGTSETTAIKSIEFARKGSCFLIN yielded a protein stability index of 2.57.
TGTSWTTAIKSIEFARKGSCFLIN showed a protein stability index of 1.64.
Work on TGTSTTTAIKSIEFARKGSCFLIN yielded a protein stability index of 2.09.
Variant TGTSYTTAIKSIEFARKGSCFLIN has a protein stability index of 1.63.
TGTSVTTAIKSIEFARKGSCFLIN showed a protein stability index of 2.38.
TGTSATTAIKSIEFARKGSCFLIN gave a protein stability index of 2.1.
TGTSQTTAIKSIEFARKGSCFLIN showed a protein stability index of 2.58.
Variant TGTSNTTAIKSIEFARKGCCFLIN has a protein stability index of 2.67.
Work on TGTSNTTAIKSIEFARKGPCFLIN yielded a protein stability index of 2.04.
Work on TGTSNTTAIKSIEFARKGGCFLIN yielded a protein stability index of 1.93.
For TGTSNTTAIKSIEFARKGHCFLIN, the protein stability index was 2.04.
Work on TGTSNTTAIKSIEFARKGACFLIN yielded a protein stability index of 1.62.
Variant TGTSNTTAIKSIEFARKGYCFLIN has a protein stability index of 1.26.
TGTSNTTAIKSIEFARKGSCSLIN gave a protein stability index of 3.09.
In the case of TGTSNTTAIKSIEFARKGSCNLIN, the protein stability index is reported as 3.53.
With TGTSNTTAIKSIEFARKGSCRLIN the protein stability index was 3.15.
In the case of TGTSNTTAIKSIEFARKGSCVLIN, the protein stability index is reported as 2.75.
In the case of TGTSNTTAIKSIEFARKGSCWLIN, the protein stability index is reported as 2.25.
In the case of TGTSNTTAIKSIEFARKGSCCLIN, the protein stability index is reported as 2.44.
TGTSNTTAIKSIEFARKGSCYLIN showed a protein stability index of 2.56.
For TGTSNTTAIKSINFARKGSCFLIN, the protein stability index was 1.75.
With TGTSNTTAIKSIRFARKGSCFLIN the protein stability index was 1.72.
Variant TGTSNTTAIKSIAFARKGSCFLIN has a protein stability index of 1.92.
In the case of TGTSNTTAIKSIKFARKGSCFLIN, the protein stability index is reported as 2.19.
TGTSNTTAIKSIMFARKGSCFLIN gave a protein stability index of 2.15.
For TGTSNTTAIKSIIFARKGSCFLIN, the protein stability index was 2.89.
Work on TGTSNTTAIKSITFARKGSCFLIN yielded a protein stability index of 2.31.
TGTSNTTAIKSISFARKGSCFLIN gave a protein stability index of 2.38.
In the case of TGTSNTTAIKSIDFARKGSCFLIN, the protein stability index is reported as 2.32.
